Measured values published in patent publication US20210147536A1 (MAB VENTURE BIOPHARM, published 2021).
Substitutions are numbered along the chain they refer to.

T1: human LAG-3-6*His tag recombinant fusion protein (human, UniProt P18627 23-450, biotin-labelled in panning and in Example 9)
T1 construct: Bought protein; also called hLAG-3-6*his tag recombinant protein; human LAG-3-his tag recombinant fusion protein
T1 sequence: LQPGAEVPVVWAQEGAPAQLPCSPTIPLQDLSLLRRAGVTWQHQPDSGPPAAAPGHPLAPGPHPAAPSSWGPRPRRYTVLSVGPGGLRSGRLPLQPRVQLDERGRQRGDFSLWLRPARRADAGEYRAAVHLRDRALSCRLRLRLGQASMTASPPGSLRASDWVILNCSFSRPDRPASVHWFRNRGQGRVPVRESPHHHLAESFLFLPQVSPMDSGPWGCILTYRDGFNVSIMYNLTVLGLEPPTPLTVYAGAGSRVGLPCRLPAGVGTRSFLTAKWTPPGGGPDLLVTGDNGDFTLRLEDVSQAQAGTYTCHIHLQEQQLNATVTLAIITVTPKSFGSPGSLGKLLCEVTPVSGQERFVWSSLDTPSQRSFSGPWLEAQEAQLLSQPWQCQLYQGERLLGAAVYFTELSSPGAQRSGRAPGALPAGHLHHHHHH

T2: human LAG-3 on the cell surface (human, UniProt P18627 23-525)
T2 construct: whole, on cells; also called cells expressing the human LAG-3
T2 sequence (looked up): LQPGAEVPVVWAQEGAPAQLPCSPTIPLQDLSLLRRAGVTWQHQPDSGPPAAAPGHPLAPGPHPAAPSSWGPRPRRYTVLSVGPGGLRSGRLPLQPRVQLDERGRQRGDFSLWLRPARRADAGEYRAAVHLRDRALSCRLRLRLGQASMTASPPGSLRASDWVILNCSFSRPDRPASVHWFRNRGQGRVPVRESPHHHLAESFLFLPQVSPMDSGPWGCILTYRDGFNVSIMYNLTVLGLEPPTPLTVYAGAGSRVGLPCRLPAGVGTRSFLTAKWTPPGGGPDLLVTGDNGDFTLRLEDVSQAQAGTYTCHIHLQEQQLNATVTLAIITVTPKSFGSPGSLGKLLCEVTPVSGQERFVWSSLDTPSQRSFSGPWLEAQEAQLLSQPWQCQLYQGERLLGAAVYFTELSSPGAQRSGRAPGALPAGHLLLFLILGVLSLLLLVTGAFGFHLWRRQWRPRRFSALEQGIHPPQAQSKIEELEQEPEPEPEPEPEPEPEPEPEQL

B1: IgG4 monoclonal antibody 11471 (antibody, V domains shown)
VH: RVRLQESGPGLVKPSQTLSLTCTVSGGSISSSNWWSWVRQPPGKGLEWIGEIYHSGSTNYNPSLKSRVTISVDKSKNQFSLKLSSVTAADTAVYYCARDRAIRDAFDIWGQGTTVTVSS
VL: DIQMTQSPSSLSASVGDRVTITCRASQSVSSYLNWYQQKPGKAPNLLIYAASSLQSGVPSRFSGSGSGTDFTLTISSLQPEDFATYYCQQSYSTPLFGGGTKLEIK
notes: IgG4, kappa
B2: scFv single chain antibody 11451 (scFv)
scFv: QVQLQESGPGLVKPSETLSLTCTVSGGSISSGGYYWGWIRQPPGKGLEWIGSIYYSGRTYYNPSLKSRVTISVDTSRNQFSLKLSSLTAADTAVYYCARTGGGAYGFDYWGQGTLVTVSSGGGGSGGGGSGGGGSGGGGASQPVLTQPHSVSESPGKTVTISCTRSSGNIASNYVQWYQKRPGSPPTTVIYEDNQRPSGVPDRFSASIDSSSNSASLTISGLRTEDEADYYCQSYDTILGYVFGGGTQLTAL
notes: From phagemid pCLS1.0, which adds a C-terminal Myc-His tag
B3: scFv single chain antibody 11455 (scFv)
scFv: EVHLVESGGGVVQPGRSLRLSCAASGFTFSNYAMHWVRQAPGKGLEWVAVISYDGNNQYYADSVKGRFTISRDNSKNTLYLQMNSLRAEDTAVFYCARSIGFLESDAFDIWGQGTTVTVSSGGGGSGGGGSGGGGSGGGGASEIVLMQSPGTLSLSPGERATLSCRASQSFSDGSLAWYQQKPGQPPRLVIYDASKRATGIPDRFSGSRSGTEFTLTISSLQSEDFAVYSCQQYYNWPPTFGQGTRLEIK
notes: as for B2
B4: scFv single chain antibody 11465 (scFv)
scFv: QVQLVQSGAEVKKPGSSVKVSCKTSGGTFSNYAINWVRQAPGQGLEWMGVIIPMFGPANYVQKFQGRVTITADETTSTAYMELSSLRSEDTAIYYCARDLAPAGFYGMDVWGQGTTVTVSSGGGGSGGGGSGGGGSGGGGASDIVLTQSPSSVSASVGDRVTITCRASQGISNWLAWYQQKPGKAPKLLIYAASSLQSGVPSRFSGSRSGTDFTLTISSLQPEDFATYYCQQARNFPFTFGQGTRLEIK
notes: as for B2
B5: scFv single chain antibody 11507 (scFv)
scFv: QVQLQESGPGLVKPSETLSLTCTVSGYSISSGYYWGWIRQPPGKGLEWIGSIYHSGSTYYNPSLKSRVTISVDTSKNQFSLKLSSVTAADTAVYYCARDLQDWFDPWGQGTLVTVSSGGGGSGGGGSGGGGSGGGGASLAVLTHAPSASGTPGQRVTISCSGSKSNIGSNSVNWYQHLPGTAPKLLIHTNDQRPSGVPDRFAGSKSGTSASLTISGLRPEDEADYYCATWDDSMSGPVFGGGTELTVL
notes: as for B2
B6: scFv single chain antibody 11487 (scFv)
scFv: QVQLVESGGGLVQPGRSLRLSCVASGFTFDDHAMHWVRQTPEKGLEWVSGISWNGGDIRYADSVKGRFIISRDNAKNSLHLQMNSLRGEDTAVYYCARDGGYSVLRAFDIWGQGTTVTVSSGGGGSGGGGSGGGGSGGGGASQSVLTQPPSVSGAPGQRVTISCTGSSSNIGAGYDVHWYQQLPGTAPKLLIYGNSNRPSGVPDRFSGSKSGTSASLAITGLQAEDEADYYCQSYDSSLSGWVFGGGTQLIIL
notes: as for B2
B7: IgG4 monoclonal antibody 11487 (antibody, V domains shown)
VH: QVQLVESGGGLVQPGRSLRLSCVASGFTFDDHAMHWVRQTPEKGLEWVSGISWNGGDIRYADSVKGRFIISRDNAKNSLHLQMNSLRGEDTAVYYCARDGGYSVLRAFDIWGQGTTVTVSS
VL: QSVLTQPPSVSGAPGQRVTISCTGSSSNIGAGYDVHWYQQLPGTAPKLLIYGNSNRPSGVPDRFSGSKSGTSASLAITGLQAEDEADYYCQSYDSSLSGWVFGGGTQLIILG
notes: IgG4, lambda
B8: scFv single chain antibody 11452 (scFv)
scFv: EVQLLESGAEVKKPGASVKVSCKASGYTFTSYGISWVRQAPGQGLEWMGWISAYNGNTNYAQKLQGRVTMTTDTSTSTAYMELRSLRSDDTAVYYCARDGWWELLRPDDAFDIWGQGTTVTVSSGGGGSGGGGSGGGGSGGGGASQLVLTQSPSVSVSPGQTASITCSGDKLGDKYAYWYQQKPGQAPVLVIYYDSDRPSGIPERFSGSNSGNTATLTISRVEAGDEADYYCQVWDSSSDQVVFGGGTQLTVL
notes: as for B2
B9: scFv single chain antibody 11449 (scFv)
scFv: QVQLVQSGAEVKKPGASVKVSCKASGYTFTSYGISWVRQAPGQGLEWMGWISAYNGNTNYAQKLQGRVTMTTDTSTSTAYMELRSLRSDDTAVYYCARDEGANWGDAFDIWGQGTMVTVSSGGGGSGGGGSGGGGSGGGGASQLVLTQSPSASGTPGQRVTISCSGSSSNIGNNAVNWYQQLPGTAPKILIYSNNQRPSGVPDRFSGSKSGASASLAISGLQSEDESDYYCAAWDDSLNAVVFSGGTELTVL
notes: as for B2
B10: scFv single chain antibody 11446 (scFv)
scFv: EVQLVESGGGVVQPGRSLRLSCAASGFTFSNYAMHWVRQAPGKGLEWVAVISYDGSDKYYADSVKGRFTISRDNSKNTLYLQMKSLRAEDTAVYYCARSIGFLESDAFDIWGQGTTVTVSSGGGGSGGGGSGGGGSGGGGASDIVLTQSPSSLSASVGDRVTITCQASHGISNFLNWYQQKPGKAPKLLIYDASTLETGVPSRFSGSGSGTDFRFTISSLQPEDIATYYCQQFDNLPITFGQGTRLEIK
notes: as for B2
B11: scFv single chain antibody 11458 (scFv)
scFv: RVRLQESGPGLVKPSETLSLTCTVSGGSISSSSYYWGWIRQPPGKGLEWIGSIYYSGSTYYNPSLKSRVTISVDTSKNQFSLKLSSVTAADTAVYYCAREYSGYDGAYVGYWGQGTLVTVSSGGGGSGGGGSGGGGSGGGGASQSVLTQPPSVSGAPGQRVTISCTGSNSNIRAGYDVHWYQQLPGTVPKLLIYGNSNRPSGVPDRFSGSKSGTSASLAISGLQSEDEGNYFCATWDDSLWGWVFGAGTELTVL
notes: as for B2
B12: IgG4 monoclonal antibody 11446 (antibody, V domains shown)
VH: EVQLVESGGGVVQPGRSLRLSCAASGFTFSNYAMHWVRQAPGKGLEWVAVISYDGSDKYYADSVKGRFTISRDNSKNTLYLQMKSLRAEDTAVYYCARSIGFLESDAFDIWGQGTTVTVSS
VL: DIVLTQSPSSLSASVGDRVTITCQASHGISNFLNWYQQKPGKAPKLLIYDASTLETGVPSRFSGSGSGTDFRFTISSLQPEDIATYYCQQFDNLPITFGQGTRLEIK
notes: IgG4, kappa
B13: IgG4 monoclonal antibody 11455 (antibody, V domains shown)
VH: B12 VH with Q3H, S56N, D57N, K58Q, K84N, Y94F
VL: EIVLMQSPGTLSLSPGERATLSCRASQSFSDGSLAWYQQKPGQPPRLVIYDASKRATGIPDRFSGSRSGTEFTLTISSLQSEDFAVYSCQQYYNWPPTFGQGTRLEIK
notes: IgG4, kappa
B14: scFv single chain antibody 11506 (scFv)
scFv: QLQLQESGPGLVKSSQTLSLTCSVSGDSISSGKYYWTWIRQPAGKGLEWLGRIHSSGFAQYNPSLKGRLTISVDTRKNEFSLKMTSVTAADTAVYYCARGGWNDPFDSWGQGTLVTVSSGGGGSGGGGSGGGGSGGGGASDIQMTQSPDSLAVSLGERATINCKSSQSVLYSSNNKNYLAWYQQKPGQPPKLLIYWASTRESGVPDRFSVSGSGTDFTLTISSLHAEDVAVYYCQQYYSTPITFGPGTKLEIK
notes: as for B2
B15: scFv single chain antibody 11454 (scFv)
scFv: EVQLLQSGGGLVQPGGSLRLSCAASGFTFSSYEMNWVRQAPGKGLEWVSYISSSGSTIYYADSVKGRFTISRDNAKNSLYLQMNSLRAEDTAVYYCARVGLLDAFDIWGQGTMVTVSSGGGGSGGGGSGGGGSGGGGASQSVLTQPPSVSAAPGQKVTISCSGSSSNIGNNYVSWYQLIPEKAPRLLIYDDDKRPSGIPDRFSGSQSGTSATLGITGLQTGDEADYFCGTWDNSLSGAVFGGGTQLIIL
notes: as for B2

What was measured:
[1] = molecular target: T1, human LAG-3-6*His tag recombinant …; test: ELISA, human LAG-3-6*His coated at 1 µg/ml, IgG4 titrated, anti-hIgG HRP
[2] = molecular target: T2, human LAG-3 on the cell surface; test: flow cytometry, soluble scFv supernatant on activated human CD4+ T cells, anti-His-PE

| Binder | EC50 [1] | binding result [2] |
| --- | --- | --- |
| B1 | 22.3 µg/mL | – |
| B2 | – | binds |
| B3 | – | binds |
| B4 | – | binds |
| B5 | – | binds |
| B6 | – | binds |
| B7 | 3.35 µg/mL | – |
| B8 | – | binds |
| B9 | – | binds |
| B10 | – | binds |
| B11 | – | binds |
| B12 | 85.6 µg/mL | – |
| B13 | 83.1 µg/mL | – |
| B14 | – | binds |
| B15 | – | binds |
